This note sets out measurements from the supplement of paper PMC9170038.

The subject of this data set is MS2 coat protein. Put plainly: apparent KD of MS2 coat protein; designed switch direction (-1 OFF switch, 1 ON switch): -1; higher = weaker reporter binding. A digest of the protocol:
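An oligonucleotide input, 200 uM small-molecule ligand, or no input was present during titration of SNAP-549-labelled MS2 coat protein, which was doubled from 0.7 or 1.5 nM to 3 µM. Designed RNA switches had been transcribed on Illumina chips by stalled E. coli RNA polymerase. Apparent KD per design is the median over clusters of curves fitted to normalised cluster fluorescence.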

Setting [1] is: Eterna round: R95, input ligand: microRNA oligo, concentration not stated.
Setting [2] is: input ligand: microRNA oligo, concentration not stated.
[3] abbreviates: Eterna round: R95, input ligand: FMN 200 uM.
[4] abbreviates: Eterna round: R95, input ligand: none.

Take “UGUUCGCGAGGAUAUGCAUUCGAGUCCAUUACGUGUCUGGGACUUGAGGAUCACCCAAGUAGAAGGCGUCUCAC [salish99_ex2_r4_645] (Eterna round: R97, puzzle: Exclusion 2)”: the “apparent KD of MS2 coat protein” value runs as follows: (input ligand: FMN 200 uM) 115 nM; (input ligand: none) 122 nM.

As to “CGGUACUGAGGAUAUACAUGAGGAUCACCCAUGUGUUCCAGCUAGCGUACUGGCAUUUGUAGAAGGCGGUGCUG [JL-ex3-3.22 Brourd mod] (puzzle: Exclusion 3)”, under setting [1], the “apparent KD of MS2 coat protein” value is 16 nM.

As for “GAAAACGCAAAGGAUAUUACAGAUCAAAGCUGCUGAGAAGGUUGCACAUGAGGAUCACCCAUGUGGUCUUUCAA [Mod of Quesina 18 - Jieux - Exclusion 6] (Eterna round: R97, puzzle: Exclusion 6)”, the “apparent KD of MS2 coat protein” value by setting is: (input ligand: FMN 200 uM) 213 nM; (input ligand: none) 27.3 nM.

On to “GGAAAGUGAGGAUAUGGUAAAGUAAGUAUGUAGUAAGUAAUCCAGAAGGCACAUGAGGAUCACCCAUGUAAAUG [Mat - Exclusion 4 - D100] (puzzle: Exclusion 4)”, for which, under setting [1], the “apparent KD of MS2 coat protein” value is 27.2 nM.

For “UAUAUGUGAGGAUAUCAGGUGUGCUAGCGUACUGGUACAUCUGAGAAGGCACAUGAGGAUCACCCAUGUUUCUU [JL-ex4-3.24 Brourd mod] (puzzle: Exclusion 4)”, the “apparent KD of MS2 coat protein” value under setting [1] turned out to be 24.4 nM.

With “UUCAUGUGAGGAUAUGUGAUCUGCUUUCUGUGUAGAUGAUCACAGAAGGCACAUGAGGAUCACCCAUGUAGAUC [Ex4 - 3 - 29] (puzzle: Exclusion 4)”, the “apparent KD of MS2 coat protein” value under setting [1] is 77.3 nM.

As for “AAGAGGCUAGGAUAUACAUGAGGAUCACCCAUGUGAGGGCACGGCCGGCGCGUGGCCGGUAGAAGGAGUCAAAA [Exc;s3-VIII] (puzzle: Exclusion 3)”, the “apparent KD of MS2 coat protein” value under setting [1] amounted to 17.5 nM.

With “UGUUGUCGCGUAGGAUAUGGCCAACAGGCCGUAGGAUAUGGGAAACCAGAAGGACCGCCAACAGGCGAGAAGGACGGGACAACU [pwkr exNG2 2xF7 2xFMN.21] (Eterna round: R96, puzzle: Exclusion NG 2)”, the “apparent KD of MS2 coat protein” value was 127 nM (input ligand: FMN 200 uM), 49.4 nM under setting [2] and 72 nM (input ligand: none).

Consider “ACAUGCCUUGCAGGAUAUAGGACACAUGAGGAUCACCCAUGUGGUUUCAUGUCUAACCAAGCGUCCUAGAAGGGCGGGAACAUG [Ex NG2 #28] (Eterna round: R96, puzzle: Exclusion NG 2)”, for which the “apparent KD of MS2 coat protein” value is, setting by setting: (input ligand: FMN 200 uM) 44.9 nM; under setting [2], 25.8 nM; (input ligand: none) 36.5 nM.

Take “CUCGUGCGGCUUUGCUGUGCGGGUACAUGAGGAUCACCCAUGUAGGAUAUGGUGCGCUUUGCGUGCCAGAAGGGCGUGCGUUGG [salish99_ExNG3_r04_011] (Eterna round: R96, puzzle: Exclusion NG 3)”: the “apparent KD of MS2 coat protein” value (input ligand: FMN 200 uM) is 36.6 nM, the “apparent KD of MS2 coat protein” value under setting [2] amounted to 27.1 nM and the “apparent KD of MS2 coat protein” value (input ligand: none) was 27.3 nM.

In the case of “AGAUCUAGGACAGGAUAUACAGAUGGCUUCAUCGAAGAUGAAGCCAUUACAUGAGGAUCACCCAUGUAGAAGGGUCCUAGAUCA [Omei Exc(NG) 2Av5] (Eterna round: R96, puzzle: Exclusion NG 2)”, the “apparent KD of MS2 coat protein” value was 17.7 nM (input ligand: FMN 200 uM), 12 nM under setting [2] and 14.2 nM (input ligand: none).

Regarding “AGAUGGCGAGGAUAUACAUGAGGAUCACCCAUGUGAGAUAAUAAAGUGAGGAAGAAAAGUAGAAGGCGCUGUCA [Mat - Exclusion 3 - Mod of Salish D13] (puzzle: Exclusion 3)”, the “apparent KD of MS2 coat protein” value under setting [3] was 221 nM, the “apparent KD of MS2 coat protein” value under setting [1] was 53.7 nM and the “apparent KD of MS2 coat protein” value under setting [4] is 56.8 nM.

With “UAGAAACAUGAGGAUCACCCAUGUGAGGAUAUGAAAAAGAAAAGAAAAGAAAGAAGAAUCAGAAGGCACAAAGU [salish99-ex1_r3_087] (puzzle: Exclusion 1)”, the “apparent KD of MS2 coat protein” value runs as follows: under setting [3], 30.5 nM; under setting [1], 27.2 nM; under setting [4], 32.3 nM.

As to “ACAUCACAGCUAGGAUAUAUAUGACAUGAGGAUCACCCAUGUUGUCCCAUGUUGACGAAAACCGAAUAGAAGGAGCCACAGAUG [Ex NG2 #3] (Eterna round: R96, puzzle: Exclusion NG 2)”, the “apparent KD of MS2 coat protein” value by setting is: (input ligand: FMN 200 uM) 91.3 nM; under setting [2], 61.5 nM; (input ligand: none) 67.2 nM.

With “UAGCAUUGCCUUUGGUAGUGCUUUACAUGAGGAUCACCCAUGUAGGAUAUGGUCGGCUUUGCUGACCAGAAGGACAUGUGUAUU [MOD ENG3 1.04 by JL] (Eterna round: R96, puzzle: Exclusion NG 3)”, the “apparent KD of MS2 coat protein” value reads like this: (input ligand: FMN 200 uM) 130 nM; under setting [2], 94.4 nM; (input ligand: none) 80.7 nM.

Take “UUUGGCAGAGGAUAUACAUGAGGAUCACCCAUGUAUAAGUGGGAUGCGUGCAAAUACUGUAGAAGGCUGCCUCU [Eternabot (L2) Solution 66] (Eterna round: R97, puzzle: Exclusion 3)”: the “apparent KD of MS2 coat protein” value is, setting by setting: (input ligand: FMN 200 uM) 50.1 nM; (input ligand: none) 73 nM.

For the sequence “GAAAACGUAGGAUAUUAAUACUUAGACAUGAGGAUCACCCAUGUUUGGUGGGUUUAAGAAUGAGAAGGGCGAUGAA [EX5 #7] (Eterna round: R97, puzzle: Exclusion 5)”, the “apparent KD of MS2 coat protein” value is, setting by setting: (input ligand: FMN 200 uM) 222 nM; (input ligand: none) 189 nM.

Consider “CCGUGCACGCUGCGCUCCUACAUGAGGAUCACCCAUGUGGUCCGGUGGCGUGGGUCGCCGGACUUGGCUCGUCUUGU [salish99_S_TOV1_R5_019] (Eterna round: R97, puzzle: Sensor, turn-off variant 1)”, for which the “apparent KD of MS2 coat protein” value (input ligand: FMN 200 uM) was determined as 83.1 nM.

Regarding “GCAGCAUAUGUAGGAUAUCUGCACGAUUAGUGCAGAGAAGGACAUGAGGAUCACCCAUGUAAUUAAGAUCAAUUAUUAAGCUGC [ENG1/4-A1] (Eterna round: R96, puzzle: Exclusion NG 1)”, the “apparent KD of MS2 coat protein” value was determined as 33.3 nM (input ligand: FMN 200 uM), 15.6 nM under setting [2] and 22.8 nM (input ligand: none).

Take “GUUGUGUUAGGAUAUAACAACUACUAAUAAAUUAGUAGUUGUUAGAAGGAACAUGAGGAUCACCCAUGUAUGAC [-21.3, -20.2 kcal, A 36%] (Eterna round: R97, puzzle: Exclusion 4)”: the “apparent KD of MS2 coat protein” value worked out at 52.5 nM (input ligand: FMN 200 uM) and 30.5 nM (input ligand: none).

For “UUAAUGUGAGGAUAUCAGGUGUGCUAGAGUACUGGUACAUCUGAGAAGGCACAUGAGGAUCACCCAUGUUCUUC [Mat - Exclusion 4 - Mod of JL - D54] (puzzle: Exclusion 4)”, the “apparent KD of MS2 coat protein” value under setting [1] is 34.3 nM.

For “AGAUCUAGGACAGGAUAUACGGAUGUCUUCAUCGAAGAUGAAGACAUUACAUGAGGAUCACCCAUGUAGAAGGGUCCUAGAUCA [Omei Exc(NG) 2Av1] (Eterna round: R96, puzzle: Exclusion NG 2)”, the “apparent KD of MS2 coat protein” value by setting is: (input ligand: FMN 200 uM) 13.8 nM; under setting [2], 10.6 nM; (input ligand: none) 13.1 nM.

For “GAUAUGCGUGUGAGGAUAUUCGACGCGCAAACGGAGAAGAAGGCACAUGAGGAUCACCCAUGUGGAGGGAAGAA [BmEX4 A.13] (Eterna round: R97, puzzle: Brourd's mod of Exclusion 4)”, the “apparent KD of MS2 coat protein” value reads like this: (input ligand: FMN 200 uM) 82.8 nM; (input ligand: none) 20.7 nM.

Take “ACAAGCUUAAUCAGUAUGAACAUGAGGAUCACCCAUGUAAAAGGGAAGACAAUUGGGUUAUUUAAAGCUCGUCUUAU [JR_STOV1_Sub016] (Eterna round: R97, puzzle: Sensor, turn-off variant 1)”: the “apparent KD of MS2 coat protein” value (input ligand: FMN 200 uM) was 57.6 nM and the “apparent KD of MS2 coat protein” value (input ligand: none) came out at 67.2 nM.

For “UAGAAUCGAGGAUAUACAUGAGGAUCACCCAUGUGUGGCCAUACGGUGUGGUCGUCAGGUAGAAGGCGAUUAUA [Exclusion 3 - Mod of Jieux's Gilly Gone Silly 23 v.2] (puzzle: Exclusion 3)”, under setting [1], the “apparent KD of MS2 coat protein” value worked out at 28 nM.

On to “AACCUACAUGAGGAUCACCCAUGUGAGGAUAUAUUGGUAUUGAUGUUAUUUUUUAGAGGUAGAAGGCGCGUGAU [JR_Exc1_Sub022] (Eterna round: R97, puzzle: Exclusion 1)”, for which the “apparent KD of MS2 coat protein” value is, setting by setting: (input ligand: FMN 200 uM) 15 nM; (input ligand: none) 14 nM.

On to “CAGGUGUUAGGAUAUCGGAGAUCGAGGCCGACGGGAAAAGCCGAGAAGGAACAUGAGGAUCACCCAUGUAGGUG [JR_Exclu4_Sub035] (puzzle: Exclusion 4)”, for which the “apparent KD of MS2 coat protein” value came out at 347 nM under setting [3], 235 nM under setting [1] and 223 nM under setting [4].

As for “CAUACAGUAGUUAGGAUAUUGCAACGUACACGGAACGAGAAGGGACAUGAGGAUCACCCAUGUAGAUUGUAAAG [EX-4 Malc #8] (puzzle: Brourd's mod of Exclusion 4)”, the “apparent KD of MS2 coat protein” value under setting [1] is 20 nM.

For “CGUGACUCAGGAUAUCUAUAAUAUCACAUGAGGAUCACCCAUGUCCAGCAAUAGCUGGAGGGAGAAGGGAGUCACG [Fiskers Ex 5 - 40] (puzzle: Exclusion 5)”, the “apparent KD of MS2 coat protein” value under setting [1] was 195 nM.

In the case of “CAAAAGCUAGGAUAUCGUAAACAAGACAUGAGGAUCACCCAUGUGUCCGUGGCUGACCUCCGAGAAGGAGCAAUAU [Bilate] (puzzle: Exclusion 5)”, the “apparent KD of MS2 coat protein” value amounted to 23.6 nM under setting [3], 16.8 nM under setting [1] and 18.6 nM under setting [4].

Turning to “AAGAUUAUUUCAGGAUAUAGAUUGAUGAUCGUACUAGAAGGGAAAACACAGUACAUGAGGAUCACCCAUGUUCAUGUAGUGCCA [Eternabot solution 29] (Eterna round: R96, puzzle: Exclusion NG 1)”, the “apparent KD of MS2 coat protein” value by setting is: (input ligand: FMN 200 uM) 17.2 nM; under setting [2], 13.4 nM; (input ligand: none) 17.4 nM.

“GACGAAAGAGGAUAUACCGUACGACCCUCGUCAGGGAUCCGACAUGAGGAUCACCCAUGUAGAAGGCUUGCGUC [Eternabot (Original) Solution 25] (Eterna round: R97, puzzle: Exclusion 2)”: the “apparent KD of MS2 coat protein” value was 763 nM (input ligand: FMN 200 uM) and 200 nM (input ligand: none).
